According to patent US20240285753A1 (DUKE UNIVERSITY, published 2024):

What was measured:
S2hlx-Ex8-Trx F1148A = experiment: ELISA; antigen coated, mAb titrated
S2hlx-Ex15 F1148A = target: T1, S2hlx-Ex15 F1148A; experiment: ELISA; antigen coated, mAb titrated
T1 epitope scaffold: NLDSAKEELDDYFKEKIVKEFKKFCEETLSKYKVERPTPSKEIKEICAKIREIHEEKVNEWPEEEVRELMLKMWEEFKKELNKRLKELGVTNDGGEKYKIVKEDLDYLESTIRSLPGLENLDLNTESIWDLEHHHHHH

S2hlx-Ex46 = target: T2, S2hlx-Ex46; experiment: SPR, single cycle; mAb captured on Protein A, epitope scaffold as analyte
T2 epitope scaffold: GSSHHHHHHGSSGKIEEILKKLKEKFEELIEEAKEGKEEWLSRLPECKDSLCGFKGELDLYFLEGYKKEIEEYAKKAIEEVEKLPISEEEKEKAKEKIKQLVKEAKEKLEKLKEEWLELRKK

S2hlx-Ex37 = target: T3, S2hlx-Ex37; experiment: as above
T3 chain: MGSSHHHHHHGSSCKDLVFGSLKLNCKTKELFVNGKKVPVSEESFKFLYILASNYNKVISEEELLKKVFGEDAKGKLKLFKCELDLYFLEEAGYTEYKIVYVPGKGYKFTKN

S2hlx-Ex54 = target: T4, S2hlx-Ex54; experiment: as above
T4 chain: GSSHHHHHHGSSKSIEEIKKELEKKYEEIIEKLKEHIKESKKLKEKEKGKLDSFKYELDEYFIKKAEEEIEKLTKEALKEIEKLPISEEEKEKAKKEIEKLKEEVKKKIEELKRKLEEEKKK

S2hlx-Ex15 = target: T5, S2hlx-Ex15; experiment: SPR, mAb captured, antigen as analyte
T5 chain: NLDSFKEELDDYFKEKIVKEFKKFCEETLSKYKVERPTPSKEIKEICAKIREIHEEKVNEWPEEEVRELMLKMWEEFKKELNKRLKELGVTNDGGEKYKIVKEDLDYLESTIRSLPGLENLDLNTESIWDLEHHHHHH

S2hlx-Ex20 = target: T6, S2hlx-Ex20; experiment: SPR, mAb captured, antigen as analyte
T6 chain: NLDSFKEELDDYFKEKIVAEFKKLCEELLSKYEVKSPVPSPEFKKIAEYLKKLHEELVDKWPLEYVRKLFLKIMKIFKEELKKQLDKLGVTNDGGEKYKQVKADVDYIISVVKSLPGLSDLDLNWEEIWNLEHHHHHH

S2hlx-Ex17 = target: T7, S2hlx-Ex17; experiment: SPR, mAb captured, antigen as analyte
T7 chain: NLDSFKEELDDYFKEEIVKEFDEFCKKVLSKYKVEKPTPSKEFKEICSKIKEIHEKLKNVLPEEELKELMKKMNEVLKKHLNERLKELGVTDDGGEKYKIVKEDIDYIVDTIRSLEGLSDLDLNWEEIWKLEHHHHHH

S2hlx-Ex2 = target: T8, S2hlx-Ex2; experiment: ELISA, coated antigen, mAb titrated
T8 construct: backbone grafting design
T8 chain: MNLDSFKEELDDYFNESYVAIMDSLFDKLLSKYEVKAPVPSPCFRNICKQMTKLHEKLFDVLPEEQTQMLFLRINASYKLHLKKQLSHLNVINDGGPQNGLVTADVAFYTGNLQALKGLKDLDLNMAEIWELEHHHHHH

S2hlx-Ex3 = target: T9, S2hlx-Ex3; experiment: ELISA, coated antigen, mAb titrated
T9 construct: backbone grafting design
T9 chain: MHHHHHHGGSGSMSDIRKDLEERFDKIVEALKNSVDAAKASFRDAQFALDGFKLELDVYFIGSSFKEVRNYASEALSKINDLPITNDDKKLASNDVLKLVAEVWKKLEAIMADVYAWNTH

S2hlx-Ex4 = target: T10, S2hlx-Ex4; experiment: ELISA, coated antigen, mAb titrated
T10 construct: backbone grafting design
T10 chain: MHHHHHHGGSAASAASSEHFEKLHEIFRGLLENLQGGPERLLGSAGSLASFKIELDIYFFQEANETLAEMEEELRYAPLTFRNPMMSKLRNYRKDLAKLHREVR

CC19 LA = experiment: ELISA, coated antigen, mAb titrated
S2hlx-4 = experiment: SPR, mAb captured, antigen as analyte
S2hlx-4, sequence (chain, as listed by the source): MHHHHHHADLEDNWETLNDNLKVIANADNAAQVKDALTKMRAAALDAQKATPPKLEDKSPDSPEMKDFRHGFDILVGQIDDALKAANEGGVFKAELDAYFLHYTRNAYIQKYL

S2hlx-15 = target: T11, S2hlx-15; experiment: ELISA, coated antigen, mAb titrated
T11 chain: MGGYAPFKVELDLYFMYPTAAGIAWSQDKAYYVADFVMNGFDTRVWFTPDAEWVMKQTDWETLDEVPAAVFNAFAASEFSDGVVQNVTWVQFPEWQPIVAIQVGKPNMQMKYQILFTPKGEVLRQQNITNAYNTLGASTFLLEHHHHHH

B1: S2P6 mAb (antibody, V domains shown)
VH: EVQLVQSGAEVKKPGASVKVSCKASGYTFTSQYMHWVRQAPGQGLEWIGIINPSGVHTSYAQKFQGRVTLTRDTSTSTLYMELSSLRSEDTAVYYCARGSPKGAFDYWGQGTLVTVSS
VL: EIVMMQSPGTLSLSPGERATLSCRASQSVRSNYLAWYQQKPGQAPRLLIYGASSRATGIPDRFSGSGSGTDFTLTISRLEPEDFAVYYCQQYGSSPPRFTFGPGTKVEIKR
- EC50 (read off the curve) (S2hlx-Ex8-Trx F1148A): ~0.04 µg/mL
- EC50 (read off the curve) (S2hlx-Ex15 F1148A): ~0.07 µg/mL
- Kd (S2hlx-Ex46): 296 nM
- Kd (S2hlx-Ex37): 664 nM
- Kd (S2hlx-Ex54): 45.6 nM
- Kd (S2hlx-Ex15): 6 nM
- Kd (S2hlx-Ex20): 10.7 nM
- Kd (S2hlx-Ex17): 29.6 nM
- EC50 (read off the curve) (S2hlx-Ex2): ~0.07 µg/mL
- EC50 (read off the curve) (S2hlx-Ex3): ~0.06 µg/mL
- EC50 (read off the curve) (S2hlx-Ex4): ~0.07 µg/mL
- EC50 (read off the curve) (CC19 LA): ~0.02 µg/mL
- Kd (S2hlx-4): 47.7 nM
- EC50 (read off the curve) (S2hlx-15): ~0.1 µg/mL
